The target in assay [1] is VgrG1 (from pRSFDuet-1::vgrG1::eagT6) (Pseudomonas aeruginosa). The experiment in a line: cryo-EM structure.
Assay [2] concerns the target Tse6 (full-length, C-terminal His8 tag) (Pseudomonas aeruginosa, UniProt Q9I739 1-430). The experiment in a line: cryo-EM structure.

Sequence of Tse6 (full-length, C-terminal His8 tag) (Q9I739 whole entry): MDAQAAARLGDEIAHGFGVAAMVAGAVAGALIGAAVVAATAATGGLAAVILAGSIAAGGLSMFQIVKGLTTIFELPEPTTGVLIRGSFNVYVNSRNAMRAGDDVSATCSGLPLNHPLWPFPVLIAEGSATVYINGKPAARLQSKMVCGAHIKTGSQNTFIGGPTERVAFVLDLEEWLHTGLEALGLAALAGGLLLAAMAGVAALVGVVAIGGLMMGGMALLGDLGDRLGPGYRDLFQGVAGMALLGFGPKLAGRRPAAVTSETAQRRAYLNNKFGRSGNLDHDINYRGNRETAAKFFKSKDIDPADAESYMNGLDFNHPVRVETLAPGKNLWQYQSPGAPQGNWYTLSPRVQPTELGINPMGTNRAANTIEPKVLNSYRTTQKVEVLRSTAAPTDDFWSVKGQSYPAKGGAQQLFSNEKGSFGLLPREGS

For “VgrG1 (from pRSFDuet-1::vgrG1::eagT6) (natural protein)”, in assay [1], the stoichiometry N (commonly the number of molecules, sites or subunits per partner or assembly) was found to be 3.

B1: EagT6 (from pRSFDuet-1::vgrG1::eagT6) (natural protein)
chain: MTLYRLHEADLEIPDAWQDQSINIFKLPASGPAREASFVISRDASQGDAPFADYVARQLENAEKQLPGFKLHKRWDINIHGHAAVLLDYQWQREGRDLMLRQVFIERRPAVLITTLTTTPADLPHHEPAWKQAMQTLVPRPTPS
On to B1, for which the binding result in assay [2] is “binds”.
